For data set [1], the target named is tau, shortest isoform (tau352).

Where a chain is given by its changes, count along the chain named.

tau, shortest isoform (tau352), sequence (chain, as listed by the source): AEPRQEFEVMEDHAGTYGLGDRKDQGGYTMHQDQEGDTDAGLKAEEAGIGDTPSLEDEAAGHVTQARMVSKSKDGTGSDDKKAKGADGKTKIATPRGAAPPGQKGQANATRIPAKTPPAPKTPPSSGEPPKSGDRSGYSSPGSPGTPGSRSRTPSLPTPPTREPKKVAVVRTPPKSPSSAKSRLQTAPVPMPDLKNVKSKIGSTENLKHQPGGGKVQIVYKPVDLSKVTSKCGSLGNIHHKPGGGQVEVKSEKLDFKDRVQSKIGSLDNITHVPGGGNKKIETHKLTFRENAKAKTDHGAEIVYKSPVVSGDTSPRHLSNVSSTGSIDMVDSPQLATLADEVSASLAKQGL

B1: abl2 tyrosine kinase (protein)
chain: GQQVGRVGEAPGLQQPQPRGIRGSSAARPSGRRRDPAGRTTETGFNIFTQHDHFASCVEDGFEGDKTGGSSPEALHRPYGCDVEPQALNEAIRWSSKENLLGATESDPNLFVALYDFVASGDNTLSITKGEKLRVLGYNQNGEWSEVRSKNGQGWVPSNYITPVNSLEKHSWYHGPVSRSAAEYLLSSLINGSFLVRESESSPGQLSISLRYEGRVYHYRINTTADGKVYVTAESRFSTLAELVHHHSTVADGLVTTLHYPAPKCNKPTVYGVSPIHDKWEMERTDITMKHKLGGGQYGEVYVGVWKKYSLTVAVKTLKEDTMEVEEFLKEAAVMKEIKHPNLVQLLGVCTLEPPFYIVTEYMPYGNLLDYLRECNREEVTAVVLLYMATQISSAMEYLEKKNFIHRDLAARNCLVGENHVVKVADFGLSRLMTGDTYTAHAGAKFPIKWTAPESLAYNTFSIKSDVWAFGVLLWEIATYGMSPYPGIDLSQVYDLLEKGYRMEQPEGCPPKVYELMRACWKWSPADRPSFAETHQAFETMFHDSSISEEVAEELGRAASSSSVVPYLPRLPILPSKTRTLKKQVENKENIEGAQDATENSASSLAPGFIRGAQASSGSPALPRKQRDKSPSSLLEDAKETCFTRDRKGGFFSSFMKKRNAPTPPKRSSSFREMENQPHKKYELTGNFSSVASLQHADGFSFTPAQQEANLVPPKCYGGSFAQRNLCNDDGGGGGGSGTAGGGWSGITGFFTPRLIKKTLGLRAGKPTASDDTSKPFPRSNSTSSMSSGLPEQDRMAMTLPRNCQRSKLQLERTVSTSSQPEENVDRANDMLPKKSEESAAPSRERPKAKLLPRGATALPLRTPSGDLAITEKDPPGVGVAGVAAAPKGKEKNGGARLGMAGVPEDGEQPGWPSPAKAAPVLPTTHNHKVPVLISPTLKHTPADVQLIGTDSQGNKFKLLSEHQVTSSGDKDRPRRVKPKCAPPPPPVMRLLQHPSICSDPTEEPTALTAGQSTSETQEGGKKAALGAVPISGKAGRPVMPPPQVPLPTSSISPAKMANGTAGTKVALRKTKQAAEKISADKISKEALLECADLLSSALTEPVPNSQLVDTGHQLLDYCSGYVDCIPQTRNKFAFREAVSKLELSLQELQVSSAAAGVPGTNPVLNNLLSCVQEISDVVQR
As for B1, in the data set with tau, the “phosphorylation of Y-to-F tau mutants co-transfected with abl2 (western blot with anti-pY)” value is “Abl2 strongly phosphorylates Y394, with lower levels of phosphorylation at Y197 and Y310”; the “phosphorylation of tau at Y310 (western blot with YP21)” value was “demonstrating phosphorylation of tau at Y310”; the “phosphorylation of the long (4R) isoform co-transfected with abl2 (western blot, sandwich ELISA)” value is “Y394 was the predominant site of abl2 phosphorylation”; the “tyrosine phosphorylation of tau with and without Gleevec (western blot, ELISA)” value is reported as “Abl1 or abl2 transfected into the cell is what directly phosphorylates tau”. In addition, the “phosphorylation of the short (3R) isoform co-transfected with abl2 (western blot, sandwich ELISA)” value in data set [1] is recorded as “Y394 was the predominant site of abl2 phosphorylation”.

B2: Gleevec-resistant abl2 (T3611 form) (protein)
chain: B1 chain with T360I
In the case of B2, the “tyrosine phosphorylation of tau in the presence of Gleevec (western blot, ELISA)” value with tau is recorded as “In the presence of Gleevec, both forms could phosphorylate tau”.

(Values after patent publication US20070134724.)
